{"source": "patent US20070148130A1", "key": {"MPRN-12": {"test_system": "T1, MPRN-12", "T1 sequence": "NVKGTEDSG"}, "MPRN-20": {"test_system": "T2, MPRN-20", "T2 sequence": "KGTEDSGTT"}}, "data": [{"substance": "partially purified native TRRE (pooled Phenyl Sepharose fractions with the highest specific activity, from stimulated THP-1 cells)", "values": [{"measurement": "TNF-R peptide cleavage activity (FRET assay) of Phenyl Sepharose elution fractions", "setting": "MPRN-12", "result": "The leading edge of the protein peak was found to give the highest FRET signal (shown here for MPRN-12)"}, {"measurement": "specific activity in the FRET peptide cleavage assay", "setting": "MPRN-12", "result": "a specific activity of 378 FU/µg in the FRET assay using the MPRN-12 substrate"}, {"measurement": "TNF-R peptide cleavage activity (FRET assay) of Phenyl Sepharose elution fractions", "setting": "MPRN-20", "result": "Fractions 4-6 but not 7-10 also cleaved MPRN-20"}]}]}
